Experiments:
[1] = Approximate Kd summary (Table 4) / measured binder ranking, method not stated; assay type: binding; conditions: Ligand Target 25-hydroxycholecalciferol
[2] = Yeast surface display and flow cytometry titration against vitamin D3; assay type: binding; conditions: for specificity for 25-D3 over vitamin D3: preference for 25-D3 over non-hydroxylated vitamin D3
Text: (§1) Binding activity yeast surface display and flow cytometry, according to methods previously described by Wittrup et al.

[3] = Yeast surface display and flow cytometry binding/titration against 25-D3; conditions: for Kd: yeast surface display, 25-D3
Text: We discovered another binder for 25-D3, referred to here as CDL2. […] It was further evolved to investigate and improve its specificity and affinity. To test a broader number of mutants, CDL2 was optimized using ep-PCR as well as small computationally guided library. The computationally guided library was constructed by docking the ligand into the binding site and optimizing the interactions between 25-D3 and the protein using ROSETTA®. To increase the sampling of the ligand, short MD simulations were performed to make small perturbations of the backbone. These computational variants, as well as variants generated via error prone mutagenesis, were expressed on yeast and sorted via fluorescence activated cell sorting. Individual designs sequenced from various rounds of mutagenesis and sorting were sequenced during the evolution to inform further design and mutagenesis strategies. One evolved variant, CDL2.1, incorporated 10 mutations scattered around the protein. Another evolved variant CDL2.2 is the most advanced variant from the directed evolution efforts.
as §1

[4] = Fluorescence polarization binding of 25-D3; conditions: read-out: Approximate Kd

B1: CDL2.1: evolved variant of CDL2 incorporating 10 mutations scattered around the protein (protein)
chain: DQSAKEAIEAALADFVKVYNSKDAAGVASKYMDDAAIFPLDMAPVDGRQNIQKLWQGLMDMGVSEPKFTTLNVQKSGDFAFESGSFSLKGPGKDSKLVDIAGIYVEVWRKGQDGGWKLYRTIANLDPAK
Q: For B1, which Kd [1] is on record?
A: 319 nM

Q: And the Kd ([2]; yeast surface display, vitamin D3, read-out: Approximate Kd)?
A: ~1900 nM

Q: What about the Kd ([3]; read-out: Approximate Kd) of the same molecule?
A: ~319 nM

B2: CDL1: designed 25-D3 binder based on scaffold PDB ID 1Z1S, a putative isomerase; 8 mutations from 1Z1S (protein)
chain: SGREQGHMNAKEILVHALRLVENGDARGFCDLFHPEGVMEFPYAPPGYKTRFEGRETIWAHMRLFPEHLTIRFTDVQFYETADPDLAIGEFHGDGVATVSGGKLAQDFISVLRTRDGQILLSRIFWNPLRHLEALGGVEAAAKIVQGA
Q: With B2 as the molecule, how does the Kd [1] read?
A: 1300 nM

Q: And the “specificity for 25-D3 over vitamin D3” value [2]?
A: did not show a significant preference

Q: And the Kd ([3]; read-out: Kd)?
A: ~2000 nM

B3: CDL2.2: slightly truncated from HH35.v1/CDL2.1; most advanced variant from the directed evolution efforts (protein)
chain: QSAKEAIEAALADFVKVYNSKDAAGVASKYMDDAAIFPLDMAPVDGRQNIQKLWQGLMDMGVSEPKFTTLNVQKSGDFAFESGSFSLKGPGKDSKLVGIAGIYVEVWRKGQDGGWKLYRTIANLGP
Q: With B3 as the molecule, how does the Kd [4] read?
A: ~188 nM

B4: CDL1.1: evolved variant of CDL1 with mutations P46S, R55A, H68P, G136V; truncated as well as mutated from 6234 (protein)
chain: NLYFQGHMNAKEILVHALRLVENGDARGFCDLFHPEGVMEFPYAPSGYKTRFEGAETIWAHMRLFPEPLTIRFTDVQFYETADPDLAIGEFHGDGVATVSGGKLAQDFISVLRTRDGQILLSRIFWNPLRHLEALV
Q: Which results are given for B4?
A: Kd [1]: 229 nM; specificity for 25-D3 over vitamin D3 [2]: about two fold over CDL1; Kd ([3]; read-out: Approximate Kd): ~229 nM

B5: CDL2: designed 25-D3 binding protein based on scaffold PDB ID 3HX8, a putative ketosteroid isomerase (protein)
chain: GQSAKEAIEAALADFVKAYNSKDAAGVASKYMDDAAIFPLDMARVDGRQNIQKLWQGLMDMGVSELKLTTLDVQESGDFAFESGSFSLKGPGKDSKLVDVAGKYVVVWRKGQDGGWKLYRTISNLDPAK
Q: Which results are given for B5?
A: Kd [1]: 2100 nM; Kd [4]: ~2100 nM; binding signal for 25-D3 on yeast ([3]; yeast display and flow cytometry, biotinylated 25-D3): exceptionally strong signal
